B1: ABD-B binding site mutation probe (dsDNA)
DNA 1: ATACATTAAAGTATCCGGCGGGAACCGGCAATCTGCCGGGATATATAAAAAACA
DNA 2: TGTTTTTTATATATCCCGGCAGATTGCCGGTTCCCGCCGGATACTTTAATGTAT
B2: biotin-WT AlLuc1 promoter probe (dsDNA)
DNA 1: ATACATTAAAGTATCTAATAAAAATTAATGGTTCATTAAGATATATAAAAAACA
DNA 2: TGTTTTTTATATATCTTAATGAACCATTAATTTTTATTAGATACTTTAATGTAT

How the values were obtained:
AlABD-B [1] = target: T1, AlABD-B (Aquatica leii, UniProt A0AAN7SB49 90-481); assay: EMSA; poly(dI-dC); no significant complex detected; LightShift EMSA kit; 2.0 ug protein (stored in PBS, 10% glycerol), 0.2 pmol probe, 2 ug/uL poly(dI-dC), 60 min at room temperature, native 6% PAGE; binding buffer salt and pH not stated; conditions: protein: recombinant; tags: His (pET28a, Ni-NTA); blunt
T1 sequence (A0AAN7SB49 entry or part of it): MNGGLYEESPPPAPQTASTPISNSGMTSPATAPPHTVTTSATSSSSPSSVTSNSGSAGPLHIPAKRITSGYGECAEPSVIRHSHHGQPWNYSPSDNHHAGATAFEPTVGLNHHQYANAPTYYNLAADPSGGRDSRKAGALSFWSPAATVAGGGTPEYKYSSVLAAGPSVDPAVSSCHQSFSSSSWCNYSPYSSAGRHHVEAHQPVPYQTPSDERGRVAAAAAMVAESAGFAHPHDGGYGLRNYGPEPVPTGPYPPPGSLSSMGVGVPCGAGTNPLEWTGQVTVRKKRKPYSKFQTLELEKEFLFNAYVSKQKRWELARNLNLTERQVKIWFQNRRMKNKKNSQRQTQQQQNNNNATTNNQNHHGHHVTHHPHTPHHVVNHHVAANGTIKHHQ

AlABD-B [2] = target: T1, AlABD-B; assay: EMSA; poly(dI-dC); signal significantly reduced by unlabeled WT probe; LightShift EMSA kit; 2.0 ug protein (stored in PBS, 10% glycerol), 0.2 pmol probe, 2 ug/uL poly(dI-dC), 60 min at room temperature, native 6% PAGE; binding buffer salt and pH not stated; conditions: protein: recombinant; tags: His (pET28a, Ni-NTA); label: biotin; blunt

Binder	binding result (AlABD-B [1])	binding result (AlABD-B [2])
B1	no binding	–
B2	–	binds

Source: article PMC10914744, “Key homeobox transcription factors regulate the development of the firefly’s adult light organ and bioluminescence”
